# According to patent US20170073690A1 (CEMM FORSCHUNGZENTRUM FUER MOLEKULARE MEDIZIN, published 2017):
# What was measured:
# LAMTOR4 = LAMTOR4 (human, UniProt Q0VGL1 1-99); test: TAP-LC-MS/MS, SII-HA-tagged bait, HEK293 Flp-In TREx cells
# Protocol: (§1) Tandem affinity STREP-HA purifications were performed as previously described³. In brief, cells were stimulated with doxycycline/tetracycline for 24 h to induce expression of SII-HA-tagged bait proteins. Induction of SII-HA-LAMTOR 3 was combined with 9 h starvation in serum free medium. Protein complexes were isolated by TAP using streptavidin agarose followed by elution with biotin, and a second purification step using HA-agarose beads. Proteins were eluted with 100 mM formic acid, neutralized with triethylammonium bicarbonate (TEAB) and digested with trypsin, and the peptides were analysed by LC-MS/MS.
# LAMTOR5 = LAMTOR5 (human, UniProt O43504 1-91); test: as above
# Protocol: as §1
# RAGA [1] = target: T1, RAGA (human, UniProt Q7L523 1-313); test: anti-HA co-IP of tagged deletion construct from HEK293T, immunoblot (FIG. 2D)
# T1 construct: Endogenous, or N-terminally tagged as bait; RAG GTPases act as heterodimers of RAGA/B with RAGC/D; also called RAG GTPase A
# Text: (§2) Proteins filtered using SAINT³⁵ that interacted with at least five bait proteins were retained. Previously published interactors of the Ragulator complex and RAG GTPases that were also detected are highlighted. b, Tabular view of spectral counts (maximum of biological replicate) and sequence coverage (percentage) of the core Ragulator network and published interactors detected. c HEK293T cells were transfected with the indicated constructs or empty vector (−). […] Anti-HA immunoprecipitates and cell extracts were analysed by immunoblot with the indicated antibodies. Deletion constructs are labelled with the number of the encoded amino acids (d) and point mutants with the amino acid motif substituted to alanine (e).
# (§3) Cells were transfected with Polyfect (Qiagen) and used for experiments after 24 hours. For lysis, cells were resuspended in Nonidet-40 lysis buffer (1% NP-40, 50 mM Hepes pH7.4, 250 mM NaCl, 5 mM EDTA, Halt phosphatase inhibitor cocktail (ThermoScientific), one tablet of EDTA-free protease inhibitor (Roche) per 50 ml) on ice for 5 min. Lysates were cleared by centrifugation in a microcentrifuge (13000 r.p.m., 10 min, 4 C). Proteins were quantified with BCA (Pierce). […]
# LAMTOR1 [2] = target: T2, LAMTOR1 (human, UniProt Q6IAA8 2-161); test: as above
# T2 construct: Endogenous in HEK293/HEK293T cells, or C-terminally tagged (V5 or SII-HA) when used as bait
# Text: as §2, §3
# LAMTOR3 [3] = target: T3, LAMTOR3 (human, UniProt Q9UHA4 1-124, limits assumed); test: anti-HA co-IP of tagged point mutant from HEK293T, immunoblot (FIG. 2E)
# T3 construct: also called SII-HA-LAMTOR 3
# Text: as §2
# (§4) Cells were transfected with Polyfect (Qiagen) and used for experiments after 24 hours. For lysis, cells were resuspended in Nonidet-40 lysis buffer (1% NP-40, 50 mM Hepes pH7.4, 250 mM NaCl, 5 mM EDTA, Halt phosphatase inhibitor cocktail (ThermoScientific), one tablet of EDTA-free protease inhibitor (Roche) per 50 ml) on ice for 5 min. Lysates were cleared by centrifugation in a microcentrifuge (13000 r.p.m., 10 min, 4 C). Proteins were quantified with BCA (Pierce). For immunoprecipitations, lysates were precleared on Sepharose6 beads (Sigma) (40 min. with rotation, 4° C.) and then incubated either with HA- or V5-coupled beads (3 h with rotation, 4° C.) or with primary antibody and protein G-sepharose (GE healthcare) (14 h with rotation, 4° C.). Beads were recovered and washed four times with lysis buffer before analysis by SDS-PAGE and immunoblotting.
# RAGA [4] = target: T1, RAGA; test: as above
# Text: as §2, §4
# LAMTOR1 [5] = target: T2, LAMTOR1; test: as above
# Text: as §2, §4
# RAGC [6] = target: T4, RAGC (human, UniProt Q9HB90 1-399); test: as above
# T4 construct: Endogenous, or N-terminally tagged as bait; also called RAG GTPase C
# Text: as §2, §4
# LAMTOR3 [7] = target: T3, LAMTOR3; test: anti-HA co-IP of tagged full length point mutant from HEK293T, immunoblot (FIG. 9C)
# RAGA [8] = target: T1, RAGA; test: as above
# LAMTOR1 [9] = target: T2, LAMTOR1; test: as above
# RAGC [10] = target: T4, RAGC; test: as above
# T4 sequence (Q9HB90 whole entry): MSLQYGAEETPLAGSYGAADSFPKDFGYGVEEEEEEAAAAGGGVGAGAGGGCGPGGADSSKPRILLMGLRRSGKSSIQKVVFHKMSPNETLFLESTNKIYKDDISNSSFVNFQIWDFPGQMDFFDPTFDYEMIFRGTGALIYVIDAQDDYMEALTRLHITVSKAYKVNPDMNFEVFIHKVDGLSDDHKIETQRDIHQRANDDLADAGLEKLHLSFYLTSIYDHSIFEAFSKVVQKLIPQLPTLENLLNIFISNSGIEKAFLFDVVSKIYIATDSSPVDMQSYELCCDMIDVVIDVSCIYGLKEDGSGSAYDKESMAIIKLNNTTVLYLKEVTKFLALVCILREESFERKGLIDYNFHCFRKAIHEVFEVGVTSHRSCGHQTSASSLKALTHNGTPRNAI
# T1 sequence (Q7L523 whole entry): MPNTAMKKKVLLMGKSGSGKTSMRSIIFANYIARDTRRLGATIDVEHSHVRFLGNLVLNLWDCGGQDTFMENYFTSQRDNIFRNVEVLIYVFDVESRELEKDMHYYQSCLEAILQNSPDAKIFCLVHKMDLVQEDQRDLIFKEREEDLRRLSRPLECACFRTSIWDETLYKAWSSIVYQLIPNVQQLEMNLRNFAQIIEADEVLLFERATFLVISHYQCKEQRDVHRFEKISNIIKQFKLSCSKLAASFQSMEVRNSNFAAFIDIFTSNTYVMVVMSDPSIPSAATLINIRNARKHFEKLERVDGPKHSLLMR
# T2 sequence (Q6IAA8 2-161 limits assumed): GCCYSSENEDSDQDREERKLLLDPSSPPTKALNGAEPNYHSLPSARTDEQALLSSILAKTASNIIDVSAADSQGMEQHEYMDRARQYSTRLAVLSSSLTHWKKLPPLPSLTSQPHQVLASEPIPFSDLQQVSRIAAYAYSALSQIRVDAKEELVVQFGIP
# T3 sequence (Q9UHA4 whole entry): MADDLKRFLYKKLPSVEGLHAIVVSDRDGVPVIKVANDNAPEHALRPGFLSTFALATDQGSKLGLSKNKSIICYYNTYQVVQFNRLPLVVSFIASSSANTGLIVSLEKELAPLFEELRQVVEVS
Binder,binding result (LAMTOR3 [3]),binding result (RAGA [4]),binding result (LAMTOR1 [5]),binding result (RAGC [6]),binding result (LAMTOR3 [7]),binding result (RAGA [8]),binding result (LAMTOR1 [9]),binding result (RAGC [10]),also measured
"SLC38A1 (other, N-terminally SII-HA tagged bait) MMHFKSGLELTELQNMTVPEDDNISNDSNDFTEVENGQINSKFISDRESRRSLTNSHLEKKKCDEYIPGTTSLGMSVFNLSNAIMGSGILGLAFALANTGILLFLVLLTSVTLLSIYSINLLLICSKETGCMVYEKLGEQVFGTTGKFVIFGATSLQNTGAMLSYLFIVKNELPSAIKFLMGKEETFSAWYVDGRVLVVIVTFGIILPLCLLKNLGYLGYTSGFSLSCMVFFLIVVIYKKFQIPCIVPELNSTISANSTNADTCTPKYVTFNSKTVYALPTIAFAFVCHPSVLPIYSELKDRSQKKMQMVSNISFFAMFVMYFLTAIFGYLTFYDNVQSDLLHKYQSKDDILILTVRLAVIVAVILTVPVLFFTVRSSLFELAKKTKFNLCRHTVVTCILLVVINLLVIFIPSMKDIFGVVGVTSANMLIFILPSSLYLKITDQDGDKGTQRIWAALFLGLGVLFSLVSIPLVIYDWACSSSSDEGH",,,,,,,,,binding result (LAMTOR4): no binding; binding result (LAMTOR5): no binding
"SLC38A9 N-terminal cytoplasmic tail deletion construct (amino acids 1-111, or amino acids 1-112) (other, also called cytoplasmic region of SLC38A9; not shown: N-terminal HA-containing tag (Strep-HA, vector pTO-SII-HA-GW)) MANMNSDSRHLGTSEVDHERDPGPMNIQFEPSDLRSKRPFCIEPTNIVNVNHVIQRVSDHASAMNKRIHYYSRLTTPADKALIAPDHVVPAPEECYVYSPLGSAYKLQSYTE",,,,,,,,,binding result (RAGA [1]): binds; binding result (LAMTOR1 [2]): binds
"SLC38A9 cytoplasmic region with motif 85PDH87 mutated to alanine (other, also called 85PDH87 mutant (cytoplasmic region); not shown: N-terminal HA-containing tag) MANMNSDSRHLGTSEVDHERDPGPMNIQFEPSDLRSKRPFCIEPTNIVNVNHVIQRVSDHASAMNKRIHYYSRLTTPADKALIAAAAVVPAPEECYVYSPLGSAYKLQSYTE",no binding,no binding,no binding,no binding,,,,,

# Now from value to binder, other results behind:
binding result (LAMTOR3 [3]),binding result (RAGA [4]),binding result (LAMTOR1 [5]),binding result (RAGC [6]),binding result (LAMTOR3 [7]),binding result (RAGA [8]),binding result (LAMTOR1 [9]),binding result (RAGC [10]),Binder,also measured
no binding,no binding,no binding,no binding,,,,,"SLC38A9 cytoplasmic region with motif 38RPF40 mutated to alanine (other, also called 38RPF40 mutant (cytoplasmic region); not shown: N-terminal HA-containing tag) MANMNSDSRHLGTSEVDHERDPGPMNIQFEPSDLRSKAAACIEPTNIVNVNHVIQRVSDHASAMNKRIHYYSRLTTPADKALIAPDHVVPAPEECYVYSPLGSAYKLQSYTE",
no binding,no binding,no binding,no binding,,,,,"SLC38A9 cytoplasmic region with motif 70YYSR73 mutated to alanine (other, also called 70YYSR73 mutant (cytoplasmic region); not shown: N-terminal HA-containing tag) MANMNSDSRHLGTSEVDHERDPGPMNIQFEPSDLRSKRPFCIEPTNIVNVNHVIQRVSDHASAMNKRIHAAAALTTPADKALIAPDHVVPAPEECYVYSPLGSAYKLQSYTE",
,,,,no binding,no binding,no binding,no binding,"full length SLC38A9 with motif 38RPF40 mutated to alanine (other, also called 38RPF40 mutant (full length); not shown: N-terminal HA-containing tag) MANMNSDSRHLGTSEVDHERDPGPMNIQFEPSDLRSKAAACIEPTNIVNVNHVIQRVSDHASAMNKRIHYYSRLTTPADKALIAPDHVVPAPEECYVYSPLGSAYKLQSYTEGYGKNTSLVTIFMIWNTMMGTSILSIPWGIKQAGFTTGMCVIILMGLLTLYCCYRVVKSRTMMFSLDTTSWEYPDVCRHYFGSFGQWSSLLFSLVSLIGAMIVYWVLMSNFLFNTGKFIFNFIHHINDTDTILSTNNSNPVICPSAGSGGHPDNSSMIFYANDTGAQQFEKWWDKSRTVPFYLVGLLLPLLNFKSPSFFSKFNILGTVSVLYLIFLVTFKAVRLGFHLEFHWFIPTEFFVPEIRFQFPQLTGVLTLAFFIHNCIITLLKNNKKQENNVRDLCIAYMLVTLTYLYIGVLVFASFPSPPLSKDCIEQNFLDNFPSSDTLSFIARIFLLFQMMTVYPLLGYLARVQLLGHIFGDIYPSIFHVLILNLIIVGAGVIMACFYPNIGGIIRYSGAACGLAFVFIYPSLIYIISLHQEERLTWPKLIFHVFIIILGVANLIVQFFM",
,,,,no binding,no binding,no binding,no binding,"full length SLC38A9 with motif 85PDH87 mutated to alanine (other, also called 85PDH87 mutant (full length); not shown: N-terminal HA-containing tag) MANMNSDSRHLGTSEVDHERDPGPMNIQFEPSDLRSKRPFCIEPTNIVNVNHVIQRVSDHASAMNKRIHYYSRLTTPADKALIAAAAVVPAPEECYVYSPLGSAYKLQSYTEGYGKNTSLVTIFMIWNTMMGTSILSIPWGIKQAGFTTGMCVIILMGLLTLYCCYRVVKSRTMMFSLDTTSWEYPDVCRHYFGSFGQWSSLLFSLVSLIGAMIVYWVLMSNFLFNTGKFIFNFIHHINDTDTILSTNNSNPVICPSAGSGGHPDNSSMIFYANDTGAQQFEKWWDKSRTVPFYLVGLLLPLLNFKSPSFFSKFNILGTVSVLYLIFLVTFKAVRLGFHLEFHWFIPTEFFVPEIRFQFPQLTGVLTLAFFIHNCIITLLKNNKKQENNVRDLCIAYMLVTLTYLYIGVLVFASFPSPPLSKDCIEQNFLDNFPSSDTLSFIARIFLLFQMMTVYPLLGYLARVQLLGHIFGDIYPSIFHVLILNLIIVGAGVIMACFYPNIGGIIRYSGAACGLAFVFIYPSLIYIISLHQEERLTWPKLIFHVFIIILGVANLIVQFFM",
,,,,no binding,no binding,no binding,no binding,"full length SLC38A9 with motif 70YYSR73 mutated to alanine (other, also called 70YYSR73 mutant (full length); not shown: N-terminal HA-containing tag) MANMNSDSRHLGTSEVDHERDPGPMNIQFEPSDLRSKRPFCIEPTNIVNVNHVIQRVSDHASAMNKRIHAAAALTTPADKALIAPDHVVPAPEECYVYSPLGSAYKLQSYTEGYGKNTSLVTIFMIWNTMMGTSILSIPWGIKQAGFTTGMCVIILMGLLTLYCCYRVVKSRTMMFSLDTTSWEYPDVCRHYFGSFGQWSSLLFSLVSLIGAMIVYWVLMSNFLFNTGKFIFNFIHHINDTDTILSTNNSNPVICPSAGSGGHPDNSSMIFYANDTGAQQFEKWWDKSRTVPFYLVGLLLPLLNFKSPSFFSKFNILGTVSVLYLIFLVTFKAVRLGFHLEFHWFIPTEFFVPEIRFQFPQLTGVLTLAFFIHNCIITLLKNNKKQENNVRDLCIAYMLVTLTYLYIGVLVFASFPSPPLSKDCIEQNFLDNFPSSDTLSFIARIFLLFQMMTVYPLLGYLARVQLLGHIFGDIYPSIFHVLILNLIIVGAGVIMACFYPNIGGIIRYSGAACGLAFVFIYPSLIYIISLHQEERLTWPKLIFHVFIIILGVANLIVQFFM",
